From patent US20260049134A1

Molecular target: SELL (L-Selectin)
Assay: ELISA on coated SELL-Fc-His, 150 ng IgG1; None 0.096

Sequence of SELL (L-Selectin) (chain, as listed by the source limits assumed): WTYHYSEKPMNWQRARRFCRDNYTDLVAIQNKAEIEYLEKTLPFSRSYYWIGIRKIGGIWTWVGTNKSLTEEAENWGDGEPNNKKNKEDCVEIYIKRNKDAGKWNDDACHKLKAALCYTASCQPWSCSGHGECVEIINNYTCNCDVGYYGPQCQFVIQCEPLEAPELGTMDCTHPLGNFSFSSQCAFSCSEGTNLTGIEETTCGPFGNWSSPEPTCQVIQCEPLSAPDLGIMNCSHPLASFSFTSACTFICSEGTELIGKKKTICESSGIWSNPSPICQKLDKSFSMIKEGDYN

- ELISA Absorbance (405 nm-570 nm): 0.188
B1: HW-28 chimeric rabbit-human IgG1 LA/LA/PG (antibody, V domains shown)
VH: QKQLVESGGRLVTPGTPLTLTCTASGFSLSSNAMSWVRQAPGEGLQWIGTISSGGSTYYASWAKGRFTISKTSTTVTLKMTSLTTEDTATYFCARGADLHRLWGPGTLVTVSS
VL: SFVLTQPASVQVNLGQTVSLTCTGKPLSRSFASWYQQKPGQAPVLVIYRDTSRPSGVPDRFSGSSSGNTATLTISGAQAGDEADYYCATSDGSGSSYQYVFGGGTQLTVTG
